Data on two molecules can be found in patent US20260139033A1 (PRANA THERAPIES, published 2026).

Where only a bound is given, the exact number is not on record here.

For test [1], the target named is T1, recombinant human TSLP (human, UniProt Q969D9 29-159). Description: cell-based or functional assay.
Test [2] deals with IL-4R on human donor PBMC (B-cells) (human, UniProt P24394 26-825). The test can be described thus: cell-based or functional assay.
Test [3] deals with T1, recombinant human TSLP. The test can be described thus: SPR; column 'SPR (Biophysical binding): TSLP (pM)'. The procedure:
(§1) SPR studies were carried out on a Biacore 3000 instrument with a CM5 chip at 25° C. The running buffer comprised 25 mM Hepes, pH 7.5, 150 mM NaCl, 0.5 mg/ml BSA, 0.005% P20. Antibodies were captured via protein A using approximately a 1/50 dilution of each antibody in the running buffer and a 2-minute contact time at a 10 μl/min flow rate. Protein A was immobilized on a CM5 chip via standard amine coupling chemistry in 10 mM acetate pH 4.5. Approximately 800 RU of each antibody was captured. The surfaces were regenerated via a 10 mM glycine pH 1.5 between cycles. Between assays the chip was regenerated with a 2-minute pulse of 100 mM Phosphoric acid. Prior to setting up multicycle kinetic analysis analyte concentration was determined spectrophotometrically using an extinction coefficient of 72,880 M⁻¹ cm⁻¹ for IL4R and 18450 M⁻¹ cm⁻¹ for the TSLP proteins respectively. Analyte samples were prepared by diluting stocks into running buffer to a final concentration of 500 nM for the IL-4R and 25 nM for TSLP followed by serially diluting with a 2-fold series with an association time of 2.5 minutes at a 50 μl/min flow rate. Dissociation data was collected for a period of 1600 seconds. Raw data was analyzed using the Scrubber2 (Biologic Software, AU) program using a double referencing procedure where compound signal is corrected to a blank surface and a buffer injection over the captured antibody surface. Kinetic data was analyzed by fitting to a simple 1:1 binding model. […] The candidates are further described in Table 3.

Test [4] has as its target T1, recombinant human TSLP. The test can be described thus: SPR (Biacore 3000, CM5 chip, 25 C): complex captured via protein A, TSLP as analyte, 1:1 fit; column 'TSLP binding(pM)'. The procedure: as §1
In general terms: Surface plasmon resonance follows binding to a sensor surface in real time, without labels.

Broadly, the Kd is a measure of binding affinity in units of concentration.

B1: Candidate-26: Light chain C-terminal TRAP: Dupilumab-YTE_Linker-GS4_TSLP TRAP 2 [2 x TRAP 2] (bispecific antibody, human IgG4 S228P, kappa)
heavy: EVQLVESGGGLEQPGGSLRLSCAGSGFTFRDYAMTWVRQAPGKGLEWVSSISGSGGNTYYADSVKGRFTISRDNSKNTLYLQMNSLRAEDTAVYYCAKDRLSITIRPRYYGLDVWGQGTTVTVSSASTKGPSVFPLAPCSRSTSESTAALGCLVKDYFPEPVTVSWNSGALTSGVHTFPAVLQSSGLYSLSSVVTVPSSSLGTKTYTCNVDHKPSNTKVDKRVESKYGPPCPPCPAPEFLGGPSVFLFPPKPKDTLYITREPEVTCVVVDVSQEDPEVQFNWYVDGVEVHNAKTKPREEQFNSTYRVVSVLTVLHQDWLNGKEYKCKVSNKGLPSSIEKTISKAKGQPREPQVYTLPPSQEEMTKNQVSLTCLVKGFYPSDIAVEWESNGQPENNYKTTPPVLDSDGSFFLYSRLTVDKSRWQEGNVFSCSVMHEALHNHYTQKSLSLSLG
light: DIVMTQSPLSLPVTPGEPASISCRSSQSLLYSIGYNYLDWYLQKSGQSPQLLIYLGSNRASGVPDRFSGSGSGTDFTLKISRVEAEDVGFYYCMQALQTPYTFGQGTKLEIKRTVAAPSVFIFPPSDEQLKSGTASVVCLLNNFYPREAKVQWKVDNALQSGNSQESVTEQDSKDSTYSLSSTLTLSKADYEKHKVYACEVTHQGLSSPVTKSFNRGECGGGGSGGGGSGGGGSGGGGSESGYAQNGDLEDAELDDYSFSCYSQLEVNGSQHSLTCAFEDPDVNITNLEFEICGALVEVKCLNFRKLQEIYFIETKKFLLIGKSNICVKVGEKSLTCKKIDLTTIVKPEAPFDLSVVYREGANDFVVTFNTSHLQKKYVKVLMHDVAYRQEKDENKWTHVNLSSTKLTLLQRKLQPAAMYEIKVRSIPDHYFKGFWSEWSPSYYFRTPEINNSSGEMDGGSGGSGGSGGSGGSGGSGGSGGSGGSGGSGGSGGSGGSGGSGGSGGSGGSGGSGGSGGSGAAEGVQIQIIYFNLETVQVTWNASKYSRTNLTFHYRFNGDEAYDQCTNYLLQEGHTSGCLLDAEQRDDILYFSIRNGTHPVFTASRWMVYYLKPSSPKHVRFSWHQDAVTVTCSDLSYGDLLYEVQYRSPFDTEWQSKQENTCNVTIEGLDAEKCYSFWVRVKAMEDVYGPDTYPSDWSEVTCWQRGEIRDACAETPTPPKPKLSK
notes: The chains here are built from the component entries
On to B1, for which the “IC50, inhibition of TSLP responses (TARC secretion) in human PBMCs” value with recombinant human TSLP [1] came out at 7.8 nM. Besides, in test [2], the “IC50, CD23 upregulation on B cells of human PBMC in response to IL-4 (column 'Biological Assays: IL-4R (nM)')” value was more than 200 nM. Further, the Kd with recombinant human TSLP [3] and with recombinant human TSLP [4] was 0.0083 nM each time.

B2: Candidate-42: Heavy and Light chain C-terminal TRAP: Dupilumab-YTE_Linker-GS4_TSLP TRAP 2 [4 x TRAP 2] (bispecific antibody, human IgG4 S228P, kappa)
heavy: EVQLVESGGGLEQPGGSLRLSCAGSGFTFRDYAMTWVRQAPGKGLEWVSSISGSGGNTYYADSVKGRFTISRDNSKNTLYLQMNSLRAEDTAVYYCAKDRLSITIRPRYYGLDVWGQGTTVTVSSASTKGPSVFPLAPCSRSTSESTAALGCLVKDYFPEPVTVSWNSGALTSGVHTFPAVLQSSGLYSLSSVVTVPSSSLGTKTYTCNVDHKPSNTKVDKRVESKYGPPCPPCPAPEFLGGPSVFLFPPKPKDTLYITREPEVTCVVVDVSQEDPEVQFNWYVDGVEVHNAKTKPREEQFNSTYRVVSVLTVLHQDWLNGKEYKCKVSNKGLPSSIEKTISKAKGQPREPQVYTLPPSQEEMTKNQVSLTCLVKGFYPSDIAVEWESNGQPENNYKTTPPVLDSDGSFFLYSRLTVDKSRWQEGNVFSCSVMHEALHNHYTQKSLSLSLGGGGGSGGGGSGGGGSGGGGSESGYAQNGDLEDAELDDYSFSCYSQLEVNGSQHSLTCAFEDPDVNITNLEFEICGALVEVKCLNFRKLQEIYFIETKKFLLIGKSNICVKVGEKSLTCKKIDLTTIVKPEAPFDLSVVYREGANDFVVTFNTSHLQKKYVKVLMHDVAYRQEKDENKWTHVNLSSTKLTLLQRKLQPAAMYEIKVRSIPDHYFKGFWSEWSPSYYFRTPEINNSSGEMDGGSGGSGGSGGSGGSGGSGGSGGSGGSGGSGGSGGSGGSGGSGGSGGSGGSGGSGGSGGSGAAEGVQIQIIYFNLETVQVTWNASKYSRTNLTFHYRFNGDEAYDQCTNYLLQEGHTSGCLLDAEQRDDILYFSIRNGTHPVFTASRWMVYYLKPSSPKHVRFSWHQDAVTVTCSDLSYGDLLYEVQYRSPFDTEWQSKQENTCNVTIEGLDAEKCYSFWVRVKAMEDVYGPDTYPSDWSEVTCWQRGEIRDACAETPTPPKPKLSK
light: B1 light
notes: as for B1
As for B2, the “IC50, inhibition of TSLP responses (TARC secretion) in human PBMCs” value with recombinant human TSLP [1] was determined as 2.37 nM. The “IC50, CD23 upregulation on B cells of human PBMC in response to IL-4 (column 'Biological Assays: IL-4R (nM)')” value in test [2] is more than 200 nM. Also, the Kd with recombinant human TSLP [3] and with recombinant human TSLP [4] was 0.0162 nM throughout.
